This sample holds only a part of the variants without activity.
B1: TPR 5TU (parent)
chain: GGAUCUUCUCGAUCUAACAAAAAAGACAAAUCUGCCACAAAGCUUGAGAGCAUCUUCGGAUGCAGAGGCGGCAGCCUUCGGUGGCGCGAUAGCGCCAACGUUCUCAACUAUGACACGCAAAACGCGUGCUCCGUUGAAUGGAGUUUAUCAUG

Variants of: B1
Experiment: polymerase ribozyme fitness, log enrichment relative to wild type (log ratio); higher = more active; in vitro selection for triplet polymerase activity
How it was run: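 Each subunit of a heterodimeric triplet polymerase ribozyme was represented by a PCR-built, transcribed mutant library that underwent triplicate single-round in vitro selection with frozen incubation at −7 °C. Extended constructs were recovered by gel excision, streptavidin-bead capture and RT-PCR, and Illumina sequencing of input and output libraries kept genotypes with ≥10 input reads and ≥1 read per output. Fitness is the logarithm of genotype enrichment relative to wild-type enrichment, from inverse-variance-weighted replicate averages, with a logarithm base of 2.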

Variant	polymerase ribozyme fitness (log ratio)
C27A C54U A91C G94C	≤ -4.2
C57G G58A A60G A137U	-4.15
A16G A24U A52C C85A C95U	≤ -4.2
A89G C125A	-1.77
A16U A17C U44C U56A C76U G88U C114A	≤ -4.2
A21C G34C A39U U55A C95G U104A A119G U144G U146A	≤ -4.2
U61G C87U C125G	≤ -4.2
A3U C10U U56A C96U C116U G143A	-3.56
A22U C57A C96G A97U C118G A119C	-2.85
G58C C79G A107U U134A U139C	≤ -4.2
C85U C125G G136A	-0.203
C69G C85A G94U	-1.01
U6G A40U U56A C93U A106C	-1.92
U31C A39C C57A C76G C95G C131U U144G	≤ -4.2
A39C A40C A41C G42C G46U G59C C87A U90G U127G G152U	≤ -4.2
A22G C132G	-3.69
A3C C57U U82G G84A U90A C93G C149U	≤ -4.2
U13A G84A G136U	-2.59
C69A G140U	-3.21
A17U A28U C38U	≤ -4.2
A37C A40C A66U C75G G94U A120G C131G G141A	≤ -4.2

Variant	polymerase ribozyme fitness (log ratio)
A20U C32G A40G U55G	-4.19
A12U G92U	-1.64
A29U U53A U56A A64U U77C A98G C103G U148C	≤ -4.2
U6C C87A G88U C96A A120U C123U	≤ -4.2
U53C A73G G84A U109G G140C	≤ -4.2
C54G G84U	-1.6
G34C	-1.49
U61G G92A	≤ -4.2
C18U C85U C105U	0.286
G42A G68C G94U	≤ -4.2
G11U A26U G83A	-4.06
C14A G62U	-1.57
A89C A142G	-1.52
C54U C93U U144C U146G	-3.87
G58C G94C	-0.872
A47U A49G G141A U145A	≤ -4.2
A17U G59C G86C A113U	≤ -4.2
U55A A119G U139G	0.219
A28U C32G A41U A73G C85G G88U G136A	≤ -4.2
C76U U82G C87U	0.25
A30U C54U C85A G128C G140U G141A	≤ -4.2

Variant	polymerase ribozyme fitness (log ratio)
G48C A49G U55G A66U C85U A97C G126C	≤ -4.2
G71C C93U C95G C99G A115C	-3.95
U44A C75U C76G U77G G92U A115U G140A G152C	≤ -4.2
C32U C38U C69A U78A C99G U101A U127C	≤ -4.2
C72G	-3.79
A23U A24C C51U U53A A98U	≤ -4.2
A19C A23G A24G U31A C35A A40U G48A C79A G140A	≤ -4.2
A20C G34A A47G U104G U130G A150G	≤ -4.2
U53A C57U G143C	-3.52
G70C A142C	-3.72
U15G U31A	0.571
U78C G92C C105U A106G C114U U148G	≤ -4.2
C8U G83C C125U	≤ -4.2
G50C C54U C85U C125U	-4.17
G42C G62U A64C G71A C79G C132G U139G U146G	≤ -4.2
A37C C57A	0.0979
A39U G59C G83U	-2.72
A40U G59C	0.561
U45A G58C	-2.28
C63U C75U U82A	0.455
U44G A60U C99G U111G G141C	≤ -4.2

Variant	polymerase ribozyme fitness (log ratio)
A3G A17U C85A A106G A107U C118G U134A A142G C149U	≤ -4.2
C57A G133U	-3.13
A30U A122U	-2.62
C96G A97G G143U	-3.14
C27A C38G C43U C85U G133A U144C	≤ -4.2
A22C A37U U61G C85G A91U U146A	≤ -4.2
C116U A122U	-0.326
A23C C43U U53G G81C C87A G143A	≤ -4.2
G48C G94U C103U G140A	≤ -4.2
A106G A115U	-1.05
G48C C51U C69A C116G	≤ -4.2
U7A A49C C103A U139A	≤ -4.2
A17U C79U C85U A97U	≤ -4.2
C87U C129A	-2.76
G25C A26U C87G A121U C129G U151A	≤ -4.2
G48U	0.247
A19U A28U G67C U82A C87A A122C U127C U145C	≤ -4.2
A37G G84A U101G A120G	-2.6
U15G A17C C27G C51A G59A C75U C87U	≤ -4.2
A52U A89G	-3.14
A91C G112C U146A	≤ -4.2

From the RNAGym collection of RNA variant scans (doi:10.1073/pnas.2313332121)
